Results as given in PMC12309361.
Read-outs that look alike come from different tables or passages of the source.

Tests used:
[1] = molecular target: Pol III alpha CBM (Escherichia coli); settings: cited from earlier work
[2] = molecular target: WT PolC CBM peptide (QLSLF) with flanking amino acids from PolC, fluorescein-labelled (B. subtilis); experiment: fluorescence polarisation; direct binding: B. subtilis DnaN in 3-fold serial dilution from 50 μM, 20 nM fluorescein-labelled peptide; 20 mM Tris-HCl pH 7.5, 100 mM NaCl, 5 mM BME, 10% glycerol, 0.1% pluronic acid F-68; fit to a 1:1 binding model
[3] = molecular target: PolC CBM sequence (QLSLF) peptide with the flanking amino acids from DnaE, fluorescein-labelled (B. subtilis); experiment: as above
[4] = molecular target: WT PolC CBM peptide (QLSLF) with flanking amino acids from PolC, fluorescein-labelled (B. subtilis); experiment: as above; remark: listed apart in the source

Kd [2] [µM]	Kd [3] [µM]	Kd [4] [µM]	Substance	Kd [1] [µM]
–	–	–	DnaN clamp (from UniProt P0A988)	0.8
3.8	7.2	3.9	B. subtilis DnaN (sliding clamp), N-terminally His6-tagged (from UniProt P05649 1-378) (natural protein)	–
